Source: paper PMC7294096
Values joined by “and” are separate entries in the source; they are usually repeats but may differ in a detail not shown here. Identical values can stand only once.

Biological target: DnaJ heat shock protein family (Hsp40) member B6 (DNAJB6), wild type (human) (UniProt O75190)
Assay: native MS; 37 μM DNAJB6 (plain or BS3-crosslinked) with 1 μM Aβ(1–40), 10 mM ammonium acetate pH 7; direct detection of DNAJB6 signals and complexes

Sequence of DnaJ heat shock protein family (Hsp40) member B6 (DNAJB6), wild type, O75190-2 1-241 (natural protein; other documents disagree on this pair) (O75190 other isoform, or with tags, fused parts or gaps): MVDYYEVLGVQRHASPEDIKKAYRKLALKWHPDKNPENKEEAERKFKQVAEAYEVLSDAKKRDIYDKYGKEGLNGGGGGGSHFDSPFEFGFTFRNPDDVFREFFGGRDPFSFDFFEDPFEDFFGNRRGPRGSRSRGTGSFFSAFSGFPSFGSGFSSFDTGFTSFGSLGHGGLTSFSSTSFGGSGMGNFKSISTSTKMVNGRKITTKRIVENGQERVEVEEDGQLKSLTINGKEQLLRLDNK

DnaJ heat shock protein family (Hsp40) member B6 (DNAJB6), wild type, O75190-2 1-241 (natural protein; other documents disagree on this pair)
stoichiometry N: 2 and 3
